Assay results reported in patent EP3766894A1 (Ecole Polytechnique Federale De Lausanne (EPFL) EPFL-TTO, dated 2021).
Positions of bridges follow the written chain, without caps; N, C: chain ends. Non-standard residues stand in square brackets, D forms with d. Primed or numbered codes have the meaning given here. Chains are numbered I, II in the order given. No end group written: not given here. *: point of attachment. Palmitoyl = CCCCCCCCCCCCCCCC(=O)*; Nle = CCCC[C@H](N)C(=O)O; PEG2″ = not defined here

Assays:
[1] = target: T1, human serum albumin (HSA) (human, UniProt P02768 25-609); experiment: fluorescence polarization
[2] = target: T1, human serum albumin (HSA); experiment: fluorescence polarization, dilution series of human serum
[3] = target: T2, human Kallikrein-related peptidase 5 (hKLK5) (human, UniProt Q9Y337 67-293, limits assumed); experiment: activity assay in the presence of 25 µM HSA
T2 construct: Active protease in substrate-based activity assays; also called stratum corneum tryptic enzyme (SCTE)

FXIIa (Factor XIIa) = target: T3, FXIIa (Factor XIIa) (human, UniProt P00748 373-615, limits assumed); experiment: substrate-based activity assay
T3 sequence (looked up): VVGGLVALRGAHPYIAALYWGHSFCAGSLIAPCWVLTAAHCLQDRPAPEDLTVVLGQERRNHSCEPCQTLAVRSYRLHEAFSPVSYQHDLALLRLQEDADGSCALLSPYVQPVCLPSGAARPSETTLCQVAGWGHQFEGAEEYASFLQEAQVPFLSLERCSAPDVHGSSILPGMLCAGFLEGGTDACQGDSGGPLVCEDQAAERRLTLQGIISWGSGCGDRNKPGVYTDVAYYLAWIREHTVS

[4] = target: T2, human Kallikrein-related peptidase 5 …; experiment: substrate-based activity assay
mouse KLK5 (mKLK5) = mouse KLK5 (mKLK5) (mouse); experiment: substrate-based activity assay, same conditions as for hKLK
mouse KLK7 (mKLK7) = mouse KLK7 (mKLK7) (mouse, UniProt Q91VE3 26-249); experiment: as above
[5] = target: T4, human Kallikrein-related peptidase 7 (hKLK7) (human, UniProt P49862 30-253); experiment: activity assay in the presence of 25 µM HSA
T4 construct: Active protease in substrate-based activity assays; also called stratum corneum chymotryptic enzyme (SCCE)

[6] = target: T4, human Kallikrein-related peptidase 7 …; experiment: substrate-based activity assay
[7] = target: T5, mouse serum albumin (MSA) (mouse, UniProt P07724 25-608); experiment: fluorescence polarization, dilution series of mouse albumin in PBS
T5 construct: also called mouse albumin
T5 sequence (P07724 25-608 limits assumed): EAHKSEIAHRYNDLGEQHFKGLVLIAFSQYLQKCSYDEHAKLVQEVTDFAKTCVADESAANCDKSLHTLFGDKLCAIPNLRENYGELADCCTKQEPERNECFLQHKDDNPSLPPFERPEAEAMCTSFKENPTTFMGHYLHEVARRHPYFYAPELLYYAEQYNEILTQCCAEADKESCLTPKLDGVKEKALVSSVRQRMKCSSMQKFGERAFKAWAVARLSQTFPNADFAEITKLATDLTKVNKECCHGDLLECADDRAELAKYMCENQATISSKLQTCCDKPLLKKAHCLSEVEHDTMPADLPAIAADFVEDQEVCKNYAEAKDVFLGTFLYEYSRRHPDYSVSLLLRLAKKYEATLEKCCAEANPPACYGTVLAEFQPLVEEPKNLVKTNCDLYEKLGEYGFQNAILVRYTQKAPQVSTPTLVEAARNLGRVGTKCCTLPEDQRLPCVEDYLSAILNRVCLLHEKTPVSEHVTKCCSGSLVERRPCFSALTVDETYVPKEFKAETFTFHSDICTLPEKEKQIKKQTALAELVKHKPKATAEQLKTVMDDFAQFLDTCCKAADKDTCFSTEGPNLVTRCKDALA

T4 sequence (P49862 30-253 limits assumed): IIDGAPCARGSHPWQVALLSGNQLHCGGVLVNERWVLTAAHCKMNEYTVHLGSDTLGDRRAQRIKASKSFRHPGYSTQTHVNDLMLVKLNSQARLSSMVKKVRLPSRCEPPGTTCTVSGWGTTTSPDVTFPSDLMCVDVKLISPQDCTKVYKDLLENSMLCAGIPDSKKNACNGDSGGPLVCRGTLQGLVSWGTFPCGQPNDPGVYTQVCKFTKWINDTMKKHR
T2 sequence (Q9Y337 67-293 limits assumed): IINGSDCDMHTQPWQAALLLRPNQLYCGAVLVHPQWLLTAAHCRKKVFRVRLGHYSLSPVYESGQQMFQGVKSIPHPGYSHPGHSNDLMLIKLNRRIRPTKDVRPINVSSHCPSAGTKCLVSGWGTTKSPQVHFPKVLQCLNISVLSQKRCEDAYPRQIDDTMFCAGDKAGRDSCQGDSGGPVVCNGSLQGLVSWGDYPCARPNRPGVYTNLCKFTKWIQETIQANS
mouse KLK7 (mKLK7), sequence (Q91VE3 26-249 limits assumed): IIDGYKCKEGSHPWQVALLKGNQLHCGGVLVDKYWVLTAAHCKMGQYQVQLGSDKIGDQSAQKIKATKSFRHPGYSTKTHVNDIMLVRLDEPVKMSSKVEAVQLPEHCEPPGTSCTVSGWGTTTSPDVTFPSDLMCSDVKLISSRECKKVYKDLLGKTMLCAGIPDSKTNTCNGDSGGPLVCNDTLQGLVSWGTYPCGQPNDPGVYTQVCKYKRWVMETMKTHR

B1: peptide 284 (albumin tag variant, 2-naphthalenecarboxylic acid) (peptide)
peptide: EYEKEYEK
modifications: not fully specified; N-terminal cap based on peptide 266 with 2-naphthalenecarboxylic acid; Lys 4 side chain acylated with palmitic acid; 5(6)-FAM on the side chain of the additional C-terminal Lys
[1]
  Kd: 147 nM

B2: N-terminal albumin tag conjugate of KLK5 inhibitor 035 (peptide)
peptide 1: GCTRQYPC
peptide 2: {5(6)‑carboxyfluorescein}-EYEK(Palmitoyl)EYE
modifications: bridge I:2-I:8; not fully specified (C-terminus, bridges); also: chain 2 C-terminus joined via PEG2 to chain 1 N-terminus, linker to a chain's N/C-terminus via PEG2
[2]
  binding result: binds
[3]
  Ki: 23 nM
  fold loss in activity against the cyclic peptide alone: 10 fold

## GCTRQYPC (linker 2-8 via 1,3‑dibromoacetone) [peptide 035 (lead KLK5 inhibitor)]
FXIIa (Factor XIIa)
  Ki: 40000 nM
[4]
  Ki: 2.2 nM

B3: KLK5 inhibitor 035-tag (C-terminal albumin tag conjugate of 035) (peptide)
peptide 1: GCTRQYPCGKG
peptide 2: EYEK(Palmitoyl)EYE
modifications: bridge I:2-I:8; not fully specified (N-terminus, bridges); also: N-terminal fluorescein via PEG2, chain not given here, chain 2 tag joined via PEG2 to Lys10 side chain of chain 1
[2]
  Kd: 119 nM
Mouse KLK5 (mKLK5)
  IC50: 2 nM
[3]
  Ki: 1.2 nM

B4: KLK7 inhibitor 096-tag (C-terminal albumin tag conjugate of 096) (peptide)
peptide 1: PCLYLARCSGKG
peptide 2: EYEK(Palmitoyl)EYE
modifications: bridge I:2-I:8; not fully specified (N-terminus, bridges); also: N-terminal fluorescein via PEG2, chain not given here, chain 2 tag joined via PEG2 to Lys11 side chain of chain 1
[2]
  Kd: 164 nM
Mouse KLK7 (mKLK7)
  IC50: 20 nM
[5]
  Ki: 32 nM

B5: peptide 282 (albumin tag variant, biphenyl-3-carboxylic acid) (peptide)
peptide: EYEKEYEK
modifications: not fully specified; N-terminal cap based on peptide 266 with biphenyl-3-carboxylic acid; Lys 4 side chain acylated with palmitic acid; 5(6)-FAM on the side chain of the additional C-terminal Lys
[1]
  Kd: 132 nM

## PCLYLARCS (bridge 2-8; not fully specified (bridges)) [peptide 096 (lead KLK7 inhibitor)]
[6]
  Ki: 16 nM

## {fluorescein-PEG2″}-EYEK(Palmitoyl)EYE (also called fluorescein-tag) [albumin tag (F-tag)]
[7]
  Kd: 4200 nM

B6: peptide 114 with norleucine in position five (peptide)
peptide: PCLY[Nle]ARC
modifications: linker 2-8 via 1,3‑dibromoacetone
notes: No peptide number is printed for the untagged norleucine derivative
[6]
  Ki: 7 nM
